Test [1] deals with BG505 MD39 trimer (HIV-1 BG505). The test can be described thus: ELISA on BG505-MD39, BG18 as mAb titrated from about 0.001 to 50 µg/mL.
For test [2] the target is unchanged. The test is described as follows: ELISA on BG505-MD39, mAb titrated from about 0.001 to 50 µg/mL. On the technique in general: ELISA stands for enzyme-linked immunosorbent assay.
The target in another test is N332-GT2 NP (ferritin) (HIV-1 BG505 Env fused to Helicobacter …). The test can be described thus: SPR; NP captured as ligand with PGT128 IgG, Fab flowed as analyte. A general note: In SPR one partner is held on a chip, and binding of the other changes the refractive index at the surface.
Test [3] deals with BG505 MD39 N332-GT2 trimer (HIV-1 BG505). The test is described as follows: SPR, Fab and N332-GT2 trimer.
Test [4] shares this target. The test can be described thus: SPR.
For test [5] the target is unchanged. The test is described as follows: SPR; reference 11mutB trimer.
Test [6] concerns the target gp120-17mutE K137/M141/P325. The test is described as follows: SPR.
The target of another test is gp120-17mutE. The test is described as follows: SPR.
Test [7] addresses gp120-17mutE K137/R139/M141/P325. The test can be described thus: SPR.
The next test has as its target gp120-17mutE K137/P325. The test can be described thus: SPR.
The target in a further test is gp120-17mutE K137/H325. The test can be described thus: SPR.
The target in test [8] is BG505 MD39 N332-GT2 trimer (HIV-1 BG505). The test can be described thus: SPR; KD scatter plot.

B1: BG18 Fab (Fab, V domains shown)
VH: QVQLRESGPGLVKPSETLSLSCTVSNDSRPSDHSWTWVRQSPGKALEWIGDIHYNGATTYNPSLRSRVRIELDQSIPRFSLKMTSMTAADTGMYYCARNAIRIYGVVALGEWFHYGMDVWGQGTAVTVSS
VL: SSELTQPPSVSVSPGQTARITCSGAPLTSRFTYWYRQKPGQAPVLIISRSSQRSSGWSGRFSASWSGTTVTLTIRGVQADDEADYYCQSSDTSDSYKMFGGGTKLTVL
notes: also called mature BG18; 354BG18
On to B1, for which, in the test with BG505 MD39 trimer [1], the “EC50 (read off the curve)” value is ~0.02 mg/L.

B2: BG18.6H BG18.11L (antibody, V domains shown)
VH: QVQLQESGPGLVKPSGTLSLTCAVSGDSRPSDHSWSWVRQPPGKGLEWIGEIYYSGSTNYNPSLKSRVTISVDKSKNQFSLKLSSVTAADTAVYYCARNAIRIYGVVALGEWFHYGMDVWGQGTTVTVSS
VL: SYELTQPPSVSVSPGQTARITCSGDALPSRYAYWYQQKPGQAPVLVISRDSQRSSGISGRFSGSWSGTTVTLTISGVQAEDEADYYCQSSDSSDTYKVFGGGTKLTVL
notes: also called less mutated variant of BG18
In the case of B2, the “EC50 (read off the curve)” value with BG505 MD39 trimer [2] was ~0.05 mg/L.

B3: BG18 iGL0 Fab (Fab, V domains shown)
VH: QVQLQESGPGLVKPSGTLSLTCAVSGGSISSSNWWSWVRQPPGKGLEWIGEIYHSGSTNYNPSLKSRVTISVDKSKNQFSLKLSSVTAADTAVYYCARNAITIFGVVIIGEYYYYGMDVWGQGTTVTVSS
VL: not shown
B3: the figures for the Kd (with N332-GT2 NP (ferritin); in test [3]) were 3 nM and 4 nM, respectively.

B4: BG18 iGL1 with alternate germline VL gene VL3-1 (antibody, V domains shown)
VH: QVQLQESGPGLVKPSGTLSLTCAVSGGSISSSNWWSWVRQPPGKGLEWIGEIYHSGSTNYNPSLKSRVTISVDKSKNQFSLKLSSVTAADTAVYYCARNAITIFGVVILGEYYYYGMDVWGQGTTVTVSS
VL: not shown
As to B4, the binding result in test [4] is “binds”.

B5: BG18 iGL1 with alternate germline VL gene VL2-8 (antibody, V domains shown)
VH: QVQLQESGPGLVKPSGTLSLTCAVSGGSISSSNWWSWVRQPPGKGLEWIGEIYHSGSTNYNPSLKSRVTISVDKSKNQFSLKLSSVTAADTAVYYCARNAITIFGVVILGEYYYYGMDVWGQGTTVTVSS
VL: QSALTQPPSASGSPGQSVTISCTGTSSDVGGYNYVSWYQQHPGKAPKLMIYEVSKRPSGVPDRFSGSKSGNTASLTVSGLQAEDEADYYCSSYAGSNNFWVFGGGTKLTVL
As for B5, the binding result in [4] is listed as “binds”.

B6: BG18 iGL1 (antibody, V domains shown)
VH: QVQLQESGPGLVKPSGTLSLTCAVSGGSISSSNWWSWVRQPPGKGLEWIGEIYHSGSTNYNPSLKSRVTISVDKSKNQFSLKLSSVTAADTAVYYCARNAITIFGVVILGEYYYYGMDVWGQGTTVTVSS
VL: not shown
Consider B6, for which the “fold improvement over 11mutB” value in [5] was ~130000 fold. In addition, the Kd in test [6] is 2.5 nM; with gp120-17mutE, ~14000 nM; in [7], 0.5 nM; with gp120-17mutE K137/P325, 11 nM; with gp120-17mutE K137/H325 it was 5.9 nM; in [4] it was 0.213 nM.

B7: BG18 iGL1 with alternate germline VL gene VL3-19 (antibody, V domains shown)
VH: QVQLQESGPGLVKPSGTLSLTCAVSGGSISSSNWWSWVRQPPGKGLEWIGEIYHSGSTNYNPSLKSRVTISVDKSKNQFSLKLSSVTAADTAVYYCARNAITIFGVVILGEYYYYGMDVWGQGTTVTVSS
VL: SSELTQDPAVSVALGQTVRITCQGDSLRSYYASWYQQKPGQAPVLVIYGKNNRPSGIPDRFSGSSSGNTASLTITGAQAEDEADYYCNSRDSSGNHWVFGGGTKLTVL
Turning to B7, in [4], the binding result is “binds”.

B8: pre13 (antibody, V domains shown)
VH: QVQLQESGPGLVKPSGTLSLTCAVSGGSISSSNWWSWVRQPPGKGLEWIGEIYHSGSTNYNPSLKSRVTISVDKSKNQFSLKLSSVTAADTAVYYCAKALNTIFGVVTLTQYYYYGMDVWGQGTTVTVSS
VL: not shown
Regarding B8, the binding result in [8] is on record as “no binding (tested: 100 µM)”.

B9: pre4 (antibody, V domains shown)
VH: QVQLQESGPGLVKPSGTLSLTCAVSGGSISSSNWWSWVRQPPGKGLEWIGEIYHSGSTNYNPSLKSRVTISVDKSKNQFSLKLSSVTAADTAVYYCARERDTIFGVVSLRVYYYYGMDVWGQGTTVTVSS
VL: not shown
For the molecule B9, in [8], the binding result is recorded as “no binding (tested: 100 µM)”.

B10: pre14 (antibody, V domains shown)
VH: QVQLQESGPGLVKPSGTLSLTCAVSGGSISSSNWWSWVRQPPGKGLEWIGEIYHSGSTNYNPSLKSRVTISVDKSKNQFSLKLSSVTAADTAVYYCARGRITIFGVVTLRGYYYYGMDVWGQGTTVTVSS
VL: not shown
notes: also called NGS pre14; NGS Pre14
With B10, the figures for the Kd (in the test with N332-GT2 NP (ferritin); in test [3]) were 94 nM and 136 nM, respectively.

B11: pre15 (antibody, V domains shown)
VH: QVQLQESGPGLVKPSGTLSLTCAVSGGSISSSNWWSWVRQPPGKGLEWIGEIYHSGSTNYNPSLKSRVTISVDKSKNQFSLKLSSVTAADTAVYYCARDIHNSFGVVSLDQNYYYGMDVWGQGTTVTVSS
VL: not shown
Consider B11, for which, in [8], the binding result is “no binding (tested: 100 µM)”.

B12: BG18 iGL1 with alternate germline VL gene VL3-10 (antibody, V domains shown)
VH: QVQLQESGPGLVKPSGTLSLTCAVSGGSISSSNWWSWVRQPPGKGLEWIGEIYHSGSTNYNPSLKSRVTISVDKSKNQFSLKLSSVTAADTAVYYCARNAITIFGVVILGEYYYYGMDVWGQGTTVTVSS
VL: SYELTQPPSVSVSPGQTARITCSGDALPKKYAYWYQQKSGQAPVLVIYKDSKRPSGIPERFSGSSSGTMATLTISGAQVEDEDDYYCYSADYSGNHWVFGGGTKLTVL
As to B12, the binding result in test [4] is listed as “binds”.

One may read the EC50 (read off the curve) as the concentration that produces a half-maximal response. Read a low EC50 (read off the curve) as greater potency. Usually Kd stands for a measure of binding affinity in units of concentration. A higher Kd goes with lower affinity.

Source of the values: US20260250331A1 (INTERNATIONAL AIDS VACCINE INITIATIVE, published 2026).
